Measured values from article PMC7367873, “Dissecting the sequence determinants for dephosphorylation by the catalytic subunits of phosphatases PP1 and PP2A” (Nature Communications, 2020).

B1: ATAD3A (protein, UniProt Q9NVI7 2-586, looked up)
ATPase family AAA …: SWLFGINKGPKGEGAGPPPPLPPAQPGAEGGGDRGLGDRPAPKDKWSNFDPTGLERAAKAARELEHSRYAKDALNLAQMQEQTLQLEQQSKLKEYEAAVEQLKSEQIRAQAEERRKTLSEETRQHQARAQYQDKLARQRYEDQLKQQQLLNEENLRKQEESVQKQEAMRRATVEREMELRHKNEMLRVEAEARARAKAERENADIIREQIRLKAAEHRQTVLESIRTAGTLFGEGFRAFVTDWDKVTATVAGLTLLAVGVYSAKNATLVAGRFIEARLGKPSLVRETSRITVLEALRHPIQVSRRLLSRPQDALEGVVLSPSLEARVRDIAIATRNTKKNRSLYRNILMYGPPGTGKTLFAKKLALHSGMDYAIMTGGDVAPMGREGVTAMHKLFDWANTSRRGLLLFVDEADAFLRKRATEKISEDLRATLNAFLYRTGQHSNKFMLVLASNQPEQFDWAINDRINEMVHFDLPGQEERERLVRMYFDKYVLKPATEGKQRLKLAQFDYGRKCSEVARLTEGMSGREIAQLAVSWQATAYASEDGVLTEAMMDTRVQDAVQQHQQKMCWLKAEGPGRGDEPSPS
B2: DDOST (protein, UniProt P39656 43-456, looked up)
Dolichyl-diphosphooligosacchar …: SGPRTLVLLDNLNVRETHSLFFRSLKDRGFELTFKTADDPSLSLIKYGEFLYDNLIIFSPSVEDFGGNINVETISAFIDGGGSVLVAASSDIGDPLRELGSECGIEFDEEKTAVIDHHNYDISDLGQHTLIVADTENLLKAPTIVGKSSLNPILFRGVGMVADPDNPLVLDILTGSSTSYSFFPDKPITQYPHAVGKNTLLIAGLQARNNARVIFSGSLDFFSDSFFNSAVQKAAPGSQRYSQTGNYELAVALSRWVFKEEGVLRVGPVSHHRVGETAPPNAYTVTDLVEYSIVIQQLSNGKWVPFDGDDIQLEFVRIDPFVRTFLKKKGGKYSVQFKLPDVYGVFQFKVDYNRLGYTHLYSSTQVSVRPLQHTQYERFIPSAYPYYASAFSMMLGLFIFSIVFLHMKEKEKSD
B3: P4HA1 (protein, UniProt P13674 18-534, looked up)
Prolyl 4-hydroxylase subunit …: HPGFFTSIGQMTDLIHTEKDLVTSLKDYIKAEEDKLEQIKKWAEKLDRLTSTATKDPEGFVGHPVNAFKLMKRLNTEWSELENLVLKDMSDGFISNLTIQRQYFPNDEDQVGAAKALLRLQDTYNLDTDTISKGNLPGVKHKSFLTAEDCFELGKVAYTEADYYHTELWMEQALRQLDEGEISTIDKVSVLDYLSYAVYQQGDLDKALLLTKKLLELDPEHQRANGNLKYFEYIMAKEKDVNKSASDDQSDQKTTPKKKGVAVDYLPERQKYEMLCRGEGIKMTPRRQKKLFCRYHDGNRNPKFILAPAKQEDEWDKPRIIRFHDIISDAEIEIVKDLAKPRLRRATISNPITGDLETVHYRISKSAWLSGYENPVVSRINMRIQDLTGLDVSTAEELQVANYGVGGQYEPHFDFARKDEPDAFKELGTGNRIATWLFYMSDVSAGGATVFPEVGASVWPKKGTAVFWYNLFASGEGDYSTRHAACPVLVGNKWVSNKWLHERGQEFRRPCTLSELE
B4: RFC1 (protein, UniProt P35251 1-1148, looked up)
Replication factor C subunit 1: MDIRKFFGVIPSGKKLVSETVKKNEKTKSDEETLKAKKGIKEIKVNSSRKEDDFKQKQPSKKKRIIYDSDSESEETLQVKNAKKPPEKLPVSSKPGKISRQDPVTYISETDEEDDFMCKKAASKSKENGRSTNSHLGTSNMKKNEENTKTKNKPLSPIKLTPTSVLDYFGTGSVQRSNKKMVASKRKELSQNTDESGLNDEAIAKQLQLDEDAELERQLHEDEEFARTLAMLDEEPKTKKARKDTEAGETFSSVQANLSKAEKHKYPHKVKTAQVSDERKSYSPRKQSKYESSKESQQHSKSSADKIGEVSSPKASSKLAIMKRKEESSYKEIEPVASKRKENAIKLKGETKTPKKTKSSPAKKESVSPEDSEKKRTNYQAYRSYLNREGPKALGSKEIPKGAENCLEGLIFVITGVLESIERDEAKSLIERYGGKVTGNVSKKTNYLVMGRDSGQSKSDKAAALGTKIIDEDGLLNLIRTMPGKKSKYEIAVETEMKKESKLERTPQKNVQGKRKISPSKKESESKKSRPTSKRDSLAKTIKKETDVFWKSLDFKEQVAEETSGDSKARNLADDSSENKVENLLWVDKYKPTSLKTIIGQQGDQSCANKLLRWLRNWQKSSSEDKKHAAKFGKFSGKDDGSSFKAALLSGPPGVGKTTTASLVCQELGYSYVELNASDTRSKSSLKAIVAESLNNTSIKGFYSNGAASSVSTKHALIMDEVDGMAGNEDRGGIQELIGLIKHTKIPIICMCNDRNHPKIRSLVHYCFDLRFQRPRVEQIKGAMMSIAFKEGLKIPPPAMNEIILGANQDIRQVLHNLSMWCARSKALTYDQAKADSHRAKKDIKMGPFDVARKVFAAGEETAHMSLVDKSDLFFHDYSIAPLFVQENYIHVKPVAAGGDMKKHLMLLSRAADSICDGDLVDSQIRSKQNWSLLPAQAIYASVLPGELMRGYMTQFPTFPSWLGKHSSTGKHDRIVQDLALHMSLRTYSSKRTVNMDYLSLLRDALVQPLTSQGVDGVQDVVALMDTYYLMKEDFENIMEISSWGGKPSPFSKLDPKVKAAFTRAYNKEAHLTPYSLQAIKASRHSTSPSLDSEYNEELNEDDSQSDEKDQDAIETDAMIKKKTKSSKPSKPEKDKEPRKGKGKSSKK
B5: DHX30 (protein, UniProt Q7L2E3 1-1194, looked up)
ATP-dependent RNA helicase …: MFSLDSFRKDRAQHRQRQCKLPPPRLPPMCVNPTPGGTISRASRDLLKEFPQPKNLLNSVIGRALGISHAKDKLVYVHTNGPKKKKVTLHIKWPKSVEVEGYGSKKIDAERQAAAAACQLFKGWGLLGPRNELFDAAKYRVLADRFGSPADSWWRPEPTMPPTSWRQLNPESIRPGGPGGLSRSLGREEEEDEEEELEEGTIDVTDFLSMTQQDSHAPLRDSRGSSFEMTDDDSAIRALTQFPLPKNLLAKVIQIATSSSTAKNLMQFHTVGTKTKLSTLTLLWPCPMTFVAKGRRKAEAENKAAALACKKLKSLGLVDRNNEPLTHAMYNLASLRELGETQRRPCTIQVPEPILRKIETFLNHYPVESSWIAPELRLQSDDILPLGKDSGPLSDPITGKPYVPLLEAEEVRLSQSLLELWRRRGPVWQEAPQLPVDPHRDTILNAIEQHPVVVISGDTGCGKTTRIPQLLLERYVTEGRGARCNVIITQPRRISAVSVAQRVSHELGPSLRRNVGFQVRLESKPPSRGGALLFCTVGILLRKLQSNPSLEGVSHVIVDEVHERDVNTDFLLILLKGLQRLNPALRLVLMSATGDNERFSRYFGGCPVIKVPGFMYPVKEHYLEDILAKLGKHQYLHRHRHHESEDECALDLDLVTDLVLHIDARGEPGGILCFLPGWQEIKGVQQRLQEALGMHESKYLILPVHSNIPMMDQKAIFQQPPVGVRKIVLATNIAETSITINDIVHVVDSGLHKEERYDLKTKVSCLETVWVSRANVIQRRGRAGRCQSGFAYHLFPRSRLEKMVPFQVPEILRTPLENLVLQAKIHMPEKTAVEFLSKAVDSPNIKAVDEAVILLQEIGVLDQREYLTTLGQRLAHISTDPRLAKAIVLAAIFRCLHPLLVVVSCLTRDPFSSSLQNRAEVDKVKALLSHDSGSDHLAFVRAVAGWEEVLRWQDRSSRENYLEENLLYAPSLRFIHGLIKQFSENIYEAFLVGKPSDCTLASAQCNEYSEEEELVKGVLMAGLYPNLIQVRQGKVTRQGKFKPNSVTYRTKSGNILLHKSTINREATRLRSRWLTYFMAVKSNGSVFVRDSSQVHPLAVLLLTDGDVHIRDDGRRATISLSDSDLLRLEGDSRTVRLLKELRRALGRMVERSLRSELAALPPSVQEEHGQLLALLAELLRGPCGSFDVRKTADD
B6: CAPRIN1 (protein, UniProt Q14444 2-709, looked up)
Caprin-1: PSATSHSGSGSKSSGPPPPSGSSGSEAAAGAGAAAPASQHPATGTGAVQTEAMKQILGVIDKKLRNLEKKKGKLDDYQERMNKGERLNQDQLDAVSKYQEVTNNLEFAKELQRSFMALSQDIQKTIKKTARREQLMREEAEQKRLKTVLELQYVLDKLGDDEVRTDLKQGLNGVPILSEEELSLLDEFYKLVDPERDMSLRLNEQYEHASIHLWDLLEGKEKPVCGTTYKVLKEIVERVFQSNYFDSTHNHQNGLCEEEEAASAPAVEDQVPEAEPEPAEEYTEQSEVESTEYVNRQFMAETQFTSGEKEQVDEWTVETVEVVNSLQQQPQAASPSVPEPHSLTPVAQADPLVRRQRVQDLMAQMQGPYNFIQDSMLDFENQTLDPAIVSAQPMNPTQNMDMPQLVCPPVHSESRLAQPNQVPVQPEATQVPLVSSTSEGYTASQPLYQPSHATEQRPQKEPIDQIQATISLNTDQTTASSSLPAASQPQVFQAGTSKPLHSSGINVNAAPFQSMQTVFNMNAPVPPVNEPETLKQQNQYQASYNQSFSSQPHQVEQTELQQEQLQTVVGTYHGSPDQSHQVTGNHQQPPQQNTGFPRSNQPYYNSRGVSRGGSRGARGLMNGYRGPANGFRGGYDGYRPSFSNTPNSGYTQSQFSAPRDYSGYQRDGYQQNFKRGSGQSGPRGAPRGRGGPPRPNRGMPQMNTQQVN
B7: ABCF2 (protein, UniProt Q9UG63 1-623, looked up)
ATP-binding cassette …: MPSDLAKKKAAKKKEAAKARQRPRKGHEENGDVVTEPQVAEKNEANGRETTEVDLLTKELEDFEMKKAAARAVTGVLASHPNSTDVHIINLSLTFHGQELLSDTKLELNSGRRYGLIGLNGIGKSMLLSAIGKREVPIPEHIDIYHLTREMPPSDKTPLHCVMEVDTERAMLEKEAERLAHEDAECEKLMELYERLEELDADKAEMRASRILHGLGFTPAMQRKKLKDFSGGWRMRVALARALFIRPFMLLLDEPTNHLDLDACVWLEEELKTFKRILVLVSHSQDFLNGVCTNIIHMHNKKLKYYTGNYDQYVKTRLELEENQMKRFHWEQDQIAHMKNYIARFGHGSAKLARQAQSKEKTLQKMMASGLTERVVSDKTLSFYFPPCGKIPPPVIMVQNVSFKYTKDGPCIYNNLEFGIDLDTRVALVGPNGAGKSTLLKLLTGELLPTDGMIRKHSHVKIGRYHQHLQEQLDLDLSPLEYMMKCYPEIKEKEEMRKIIGRYGLTGKQQVSPIRNLSDGQKCRVCLAWLAWQNPHMLFLDEPTNHLDIETIDALADAINEFEGGMMLVSHDFRLIQQVAQEIWVCEKQTITKWPGDILAYKEHLKSKLVDEEPQLTKRTHNV

system: GFP-14-3-3β and its binding proteins; assay: GFP-14-3-3β co-IP with LC-MS/MS label-free quantification, untreated versus PP1c-treated; set-up: species or system human; conditions: log2 difference; pairwise comparison PP1 vs untreated, label-free quantification, 3 replicates each

Molecule	Difference (log2), PP1 vs untreated
B1	1.381
B2	1.381
B3	1.3164
B4	1.349
B5	1.371
B6	1.323
B7	1.378

system: GFP-14-3-3β; assay: GFP-14-3-3β co-IP with LC-MS/MS, untreated GFP-14-3-3β versus GFP control (14-3-3 interactome); assay type: binding, human; conditions: log2 difference; pairwise comparison untreated vs GFP, label-free quantification, 3 replicates each

Molecule	Difference (log2), untreated vs GFP
B1	-0.296
B2	-0.4067
B3	-0.8349
B4	0.4473
B5	0.9044
B6	-0.3406
B7	-0.5576
